In data set [1] the test system is KKU-213 subcutaneous tumor. Put plainly: Tumor homing assay (IVIS imaging). The procedure: Four-week-old BALB/c female nude mice were purchased from Orient Bio (Seongnam, Republic of Korea). The mice were cared for and maintained in conformance with the Guidelines of the Institutional Animal Care and Use Committee (IACUC) of Kyungpook National University (permission no. 2017-0077). The mice were maintained in specific-pathogen free condition, controlled temperature (22±2° C.), humidity (50±10%), and light/dark cycle (12:12 h). Sterile tablet food, water and bedding were provided ad libitum. The mice were injected subcutaneously with approximately two million KKU-213 cells resuspended in 100 μl DMEM. When the tumor size reached 200 mm^3 after approximately 4 weeks, the mice were intravenously injected with near-infrared Flamma Fluor 675-labeled peptides. After 2 h, the signal was detected using the In Vivo Imaging System (IVIS) (PerkinElmer, Waltham, MA, USA). During the analysis the mice were anesthetized with 2.5% isoflurane in a gas chamber supplied with oxygen flowmeter 0.8 L/min. […] The frozen tissues were prepared for histological examination.
To examine the tumor homing of […] (SEQ ID NO: 1) peptide, the peptide was conjugated with Flamma 675 near-infrared dye and intravenously injected into mice bearing KKU-213 subcutaneous tumor.

The nature of data set [2]: Serum stability analysis by HPLC. Type of data set: in vitro ADME. The conditions noted are these: mouse serum, 37° C., 24 h incubation, declined thereafter. The procedure:
CSTLNVESC (SEQ ID NO: 1) peptide was stable until 16 h and declined thereafter (FIG. 9).

The subject of data set [3] is KKU-213 cells. Put plainly: Cytotoxicity of peptide in cholangiocarcinoma cell line. Type of data set: cell-based, human. As to conditions: 24 h, concentration up to 256 μM. As for the experimental part:
(§1) To examine whether CSTLNVESC (SEQ ID NO: 1) peptide affects cell survival, KKU-213 and KKU-055 cells were reacted with the peptide for 24 h.

Data set [4] relates to KKU-055 cells. The data set is described as above. Type of data set: cell-based, human. As to conditions: 24 h, concentration up to 256 μM. The procedure:
as §1

For data set [5], the system named is KKU-213 cells. Kind of data set: Transwell migration assay. Type of data set: cell-based, human. The conditions noted are these: dose-dependent. As for the experimental part:
(§2) Serum-starved KKU-213 cells were resuspended with serum-free medium containing peptide and added to the 8.0 μm pore polycarbonate insert of a Transwell chamber (Corning Life Sciences, Tewksbury, MA, USA). For the invasion assay, the membrane was coated with 0.3 μg Matrigel matrix (Corning Life Sciences) at 37° C. for 2 h before use. Serum-containing or serum-free medium was added to the reservoir and reacted at 37° C. overnight. The migrated or invaded cells were fixed and stained with 0.1% crystal violet solution at RT for 10 min. The stained cells were counted under a light microscope.
(§3) Trop2 is involved in EMT and metastasis, and to examine whether CSTLNVESC (SEQ ID NO: 1) peptide affects cell migration and invasion, trans-well chamber assays were performed.

Data set [6] has as its system KKU-213 cells. Put plainly: Transwell invasion assay (Matrigel). Type of data set: cell-based, human. The conditions noted are these: dose-dependent. As for the experimental part: as §2, §3
The test system of data set [7] is KKU-213 cells. Put plainly: Flow cytometry binding of FITC-labeled peptide. The data set is classed as cell-based, human. As for the experimental part: (§4) A million cells were prepared, fixed with 4% PFA, and blocked with 1% BSA at RT for 30 min. The cells were reacted with mouse anti-Trop2 antibody at RT for 1 h with agitation. Then, cells were reacted with Alexa Fluor 488-labeled anti-mouse IgG antibody at RT for 1 h. For peptide binding, cells were reacted with FITC-labeling peptide at 4° C. for 1 h with agitation. The stained cells were fixed with 4% PFA before analysis with a flow cytometer.
(§5) To examine the binding of CSTLNVESC (SEQ ID NO: 1) peptide to cells, CSTLNVESC (SEQ ID NO: 1) peptide was tagged with FITC fluorescence dye at the carboxy terminus. […] In contrast, NSSSVDK-FITC control peptide weakly bound to both cell lines. Binding of CSTLNVESC (SEQ ID NO: 1)-FITC peptide, but not NSSSVDK-FITC peptide, to Trop2-expressing KKU-213 cells was also observed by immunofluorescence microscopic analysis (FIG. 5B).

The test system of data set [8] is Trop2-overexpressing MCF7 breast tumor cells. Kind of data set: FITC-peptide cell binding (FIG. 6B). Type of data set: cell-based.
Data set [9] relates to Trop2-silenced KKU-213 cells. Kind of data set: FITC-peptide binding after Trop2 silencing with siRNAs. The conditions noted are these: KKU-213 transfected with Trop2 siRNAs for 24 h. The data set is classed as cell-based, human. The text has this: To prepare Trop2-overexpressing cells for biopanning, pCMV6-AC-GFP plasmid including human Trop2 gene, tacstd2, (Origene, Rockville, MD, USA) was transfected into HEK293T cells using Lipofectamine 2000 (Thermo Fisher Scientific, Waltham, MA, USA). For Trop2 silencing, KKU-213 cells were transfected with a small-interfering RNA (siRNA) against Trop2 gene (Qiagen, Venlo, Netherlands) or control siRNA (Bioneer, Oakland, CA) using Lipofectamine RNAiMAX (Thermo Fisher Scientific). Two siRNAs, siTrop21 and siTrop22 have been designed specifically to target sequences; 5′-CCCGGGATCGTTTGCAAGTAA-3 (SEQ ID NO: 4)′ and 5′-TTGCGACATTGTGAAGGCTTA-3 (SEQ ID NO: 5)′. The silencing efficiencies were analyzed by Western blots.
For co-localization assays, cells were reacted with FITC-conjugated peptide at 4° C. for 1 h and fixed with 4% PFA at RT for 10 min. […]
To further examine whether the binding of CSTLNVESC (SEQ ID NO: 1)-FITC peptide to the Trop2-overexpressing cells was mediated by Trop2, Trop2 gene expression in KKU-213 cells was silenced using Trop2 siRNAs. Trop2 expression was reduced after transfection with Trop2 siRNAs for 24 h as determined by western blotting (FIG. 5C), immunofluorescence microscopy (FIG. 5D), and flow cytometry (FIG. 5E). […]

The test system of data set [10] is HeLa cervical tumor cells. Put plainly: FITC-peptide cell binding (FIG. 6B). The data set is classed as cell-based.
Data set [11] concerns KKU-055 cells. Kind of data set: Cell binding affinity assay using the Ligand Tracer. Details: species or system human. The procedure:
To determine the cell binding affinity of CSTLNVESC (SEQ ID NO: 1) peptide, a binding assay using the Ligand Tracer was performed. The machine continuously monitored the CSTLNVESC (SEQ ID NO: 1)-FITC peptide binding to KKU-213 or KKU-055 cells that was dose and time-dependent.

The next data set deals with H460 lung tumor cells. Put plainly: FITC-peptide cell binding (FIG. 6B). Type of data set: cell-based.
The test system of data set [12] is Trop2-expressing KKU-213 cells. Kind of data set: Immunofluorescence microscopic analysis of FITC-peptide binding. Type of data set: cell-based, human. As for the experimental part:
For co-localization assays, cells were reacted with FITC-conjugated peptide at 4° C. for 1 h and fixed with 4% PFA at RT for 10 min. Next, cells were reacted with mouse anti-Trop2 antibody at 4° C. overnight and then with Alexa Fluor 594-labeled anti-mouse IgG antibody (Thermo Fisher Scientific) at RT for 1 h. Cells were counter-stained with DAPI and enclosed with an anti-fade agent. The slides were examined using a confocal microscope.
as §5

Data set [13] relates to Trop2-overexpressing HEK293T cells. Put plainly: FITC-peptide cell binding (FIG. 6A). Type of data set: cell-based, human.
A short description of data set [14]: Systemic side effects in treated tumor-bearing mice (body weight, blood markers). Type of data set: in vivo. As to conditions: after treatment, 10 mg/kg intravenous three times per week. An excerpt:
(§6) To exploit the use of CSTLNVESC (SEQ ID NO: 1) peptide for targeted cancer therapy, a Trop2-targeted cytotoxic peptide consisting of CSTLNVESC (SEQ ID NO: 1), RRRRRRR (SEQ ID NO: 2) (R7), and KLAKLAKKLAKLAK (SEQ ID NO: 3) (KLA) peptides was synthesized and named CSTLNVESC (SEQ ID NO: 1)-R7-KLA. R7 is a well-known cell-penetrating peptide that enhances the internalization of peptides and proteins into cells. KLA is a cytotoxic peptide that may cause damage to mitochondrial membrane of mammalian cells when introduced into cells and induce cell death. CSTLNVESC (SEQ ID NO: 1)-R7-KLA was intravenously injected into mice bearing KKU-213 tumor (10 mg/kg, three times per week, FIG. 12A). CSTLNVESC (SEQ ID NO: 1)-targeted R7-KLA peptide reduced tumor volume (FIG. 12B) and tumor weight (FIG. 12C) more efficiently than the control peptide-targeted R7-KLA or combined treatment of CSTLNVESC (SEQ ID NO: 1), R7, and KLA.

A further data set concerns KKU-213 tumor. Kind of data set: Anti-tumor growth activity in tumor-bearing mice. The data set is classed as in vivo. The conditions noted are these: 10 mg/kg intravenous, three times per week; versus control peptide-targeted R7-KLA or combined CSTLNVESC, R7, and KLA.
Text: as §6

Data set [15] concerns KKU-055 cells. Kind of data set: Flow cytometry binding of FITC-labeled peptide. The data set is classed as cell-based, human. As for the experimental part: as §4
To examine the binding of […] (SEQ ID NO: 1) peptide to cells, […] (SEQ ID NO: 1) peptide was tagged with FITC fluorescence dye at the carboxy terminus. […] In contrast, NSSSVDK-FITC control peptide weakly bound to both cell lines. Binding of […] (SEQ ID NO: 1)-FITC peptide, but not NSSSVDK-FITC peptide, to Trop2-expressing KKU-213 cells was also observed by immunofluorescence microscopic analysis (FIG. 5B).
For orientation: A flow cytometer gives signals particle by particle.

Data set [16] deals with T1, Trop2 (trophoblast antigen 2) expressed on human tumor cell lines (human, UniProt P09758 27-323).
T1 construct: whole, on cells; Endogenous membrane glycoprotein; also called tacstd2; Trop2-positive KKU-213 cells
T1 sequence (looked up): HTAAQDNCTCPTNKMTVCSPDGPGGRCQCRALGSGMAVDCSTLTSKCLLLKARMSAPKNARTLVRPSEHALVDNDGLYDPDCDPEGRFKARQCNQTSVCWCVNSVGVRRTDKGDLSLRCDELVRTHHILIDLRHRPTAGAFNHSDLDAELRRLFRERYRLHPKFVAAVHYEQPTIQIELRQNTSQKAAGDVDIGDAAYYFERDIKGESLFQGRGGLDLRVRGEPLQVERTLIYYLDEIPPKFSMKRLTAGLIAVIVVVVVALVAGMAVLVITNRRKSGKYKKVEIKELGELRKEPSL
Put plainly: Ligand Tracer, real-time binding of FITC-peptide to KKU-213 cells. As for the experimental part: To determine the cell binding affinity of […] (SEQ ID NO: 1) peptide, a binding assay using the Ligand Tracer was performed.

Primed or numbered codes have the meaning given here. Ends that are not written are not given here. FITC′ = not defined here

On to CSTLNVESC [CSTLNVESC (SEQ ID NO: 1)], for which the “accumulation and co-localization with Trop2 in tumor tissues (immunofluorescence)” value in data set [1] (anti-Trop2 antibody staining of tumor tissue) was “accumulated and co-localized with Trop2 in tumor tissues”. For the same molecule, in data set [1] (isolated organs except kidney), the “average photons in other organs, versus control peptide” value is “similar”. The “time until which peptide was stable in serum” value in data set [2] stood at 16 h. The cytotoxicity result in the data set with KKU-213 cells [3] and in the data set with KKU-055 cells [4] was “No cytotoxicity” each time. The serum-induced migration entry in the data set with KKU-213 cells [5] is reported as “inhibited”. In addition, the serum-induced invasion entry in the data set with KKU-213 cells [6] is “inhibited”.
Consider “CSTLNVESC (SEQ ID NO: 1)-Flamma 675: CSTLNVESC peptide conjugated with Flamma 675 near-infrared dye (cysteine pairing not given here; also: conjugated with Flamma 675 near-infrared dye, site not given here)”, for which, in [1] (mouse, in vivo), the “accumulation in tumor, ex vivo imaging and average photons in isolated organs” value is reported as “accumulation”; the “average photons in tumor” value is given as “higher than those of the control peptide”. Also, in data set [1] (mouse, in vivo, iv), the “tumor homing, whole-body imaging” value was “homed to tumor more efficiently than the control peptide”.
Consider “CSTLNVESC (SEQ ID NO: 1)-FITC (CSTLNVESC-{FITC′}; cysteine pairing not given here) [… peptide tagged with FITC fluorescence dye at the carboxy terminus]”, for which, in the data set with KKU-213 cells [7], the “binding to cells (flow cytometry)” value is “bound to KKU-213 cells at higher levels than to KKU-055 cells”. Further, the binding to cells entry (in data set [8]; in data set [10]; in the data set with H460 lung tumor cells; in [13]) was “selectively bound” in each case. In addition, the “binding to Trop2-silenced cells” value in [9] was “reduced”. Also, the “binding (Ligand Tracer)” value with KKU-055 cells [11] is on record as “hardly detected”. In addition, the “binding to cells (immunofluorescence microscopy)” value in data set [12] is given as “observed”.
On to “CSTLNVESC (SEQ ID NO: 1)-R7-KLA: Trop2-targeted cytotoxic peptide consisting of CSTLNVESC, RRRRRRR (R7), and KLAKLAKKLAKLAK (KLA) peptides (CSTLNVESCRRRRRRRKLAKLAKKLAKLAK)”, for which, in [14], the “level of kidney function marker BUN” value is reported as “within normal ranges”, the “level of kidney function marker creatinine” value is reported as “within normal ranges”, the “level of liver function enzyme ALP” value is listed as “within normal ranges” and the “level of liver function enzyme ALT” value is reported as “within normal ranges”. Also, in [14], the “level of liver function enzyme AST” value is listed as “within normal ranges”. Moreover, in the data set with KKU-213 tumor, the tumor volume entry is on record as “reduced” and the tumor weight entry is reported as “reduced”.
Turning to “NSSSVDK-FITC: FITC-labeled NSSSVDK control peptide (also: FITC label, site not given here) [reference compound]”, the “binding to cells (flow cytometry)” value in the data set on KKU-213 cells [7] and in the data set with KKU-055 cells [15] was “weakly bound” each time.

B1: CSTLNVESC (SEQ ID NO: 1)-FITC peptide (peptide)
peptide: CSTLNVESC-{FITC′}
modifications: cysteine pairing not given here
notes: Synthetic peptide (Fmoc), from a CX7C T7 phage library; also called FITC-conjugated peptide
For B1, in [16], the Kd (commonly a measure of binding affinity in units of concentration) came out at 5.21 µM.

(Values after patent US20260085091A1, “PEPTIDES THAT SELECTIVELY BIND TO Trop2 AND USE THEREOF” (KYUNGPOOK NATIONAL UNIVERSITY INDUSTRY-ACADEMIC COOPERATION …, priority 2022, published 2026).)
